Source: the Immune Epitope Database (IEDB)

How the values were obtained:
HLA-B*83:01 = assay: IEDB peptide-MHC binding, purified MHC/competitive/fluorescence; filed as Kd, often an IC50 or EC50 that approximates it; ≥ and ≤ were set here for values at or beyond the usual limits of such assays; details: source organism: Giardia lamblia ATCC 50803
HLA-B*15:42 = assay: as above; details: source organism: Giardia lamblia ATCC 50803
HLA-B*45:06 = assay: as above; details: source organism: Giardia lamblia ATCC 50803
HLA-B*27:05 = assay: IEDB peptide-MHC binding, purified MHC/direct/fluorescence; filed as Kd, often an IC50 or EC50 that approximates it; ≥ and ≤ were set here for values at or beyond the usual limits of such assays
HLA-B*44:02 = assay: as above
HLA-A*11:01 [1] = assay: as above
HLA-B*08:01 = assay: as above
HLA-A*31:01 = assay: as above
HLA-A*03:01 [2] = assay: as above
HLA-A*01:01 [3] = assay: as above
HLA-B*15:01 [4] = assay: as above
HLA-B*58:01 = assay: as above
HLA-B*40:01 = assay: as above
HLA-A*69:01 = assay: as above
HLA-B*07:02 = assay: as above
HLA-A*26:01 = assay: as above
HLA-C*03:03 = assay: as above
HLA-A*24:03 [5] = assay: IEDB peptide-MHC binding, purified MHC/competitive/fluorescence; filed as Kd, often an IC50 or EC50 that approximates it; ≥ and ≤ were set here for values at or beyond the usual limits of such assays; details: source organism: Bacillus anthracis str. A2012
HLA-B*51:01 = assay: IEDB peptide-MHC binding, purified MHC/competitive/radioactivity; filed as Kd, often an IC50 or EC50 that approximates it; ≥ and ≤ were set here for values at or beyond the usual limits of such assays; details: source organism: SARS coronavirus Tor2
HLA-B*53:01 = assay: as above; details: source organism: SARS coronavirus Tor2
HLA-B*54:01 = assay: as above; details: source organism: SARS coronavirus Tor2
HLA-B*35:01 [6] = assay: as above; details: source organism: SARS coronavirus Tor2
HLA-C*07:02 = assay: IEDB peptide-MHC binding, purified MHC/direct/fluorescence; filed as Kd, often an IC50 or EC50 that approximates it; ≥ and ≤ were set here for values at or beyond the usual limits of such assays
HLA-B*39:01 = assay: IEDB peptide-MHC binding, purified MHC/competitive/fluorescence; filed as Kd, often an IC50 or EC50 that approximates it; ≥ and ≤ were set here for values at or beyond the usual limits of such assays; details: source organism: Mammarenavirus juninense
HLA-B*57:01 = assay: IEDB peptide-MHC binding, purified MHC/direct/fluorescence; filed as Kd, often an IC50 or EC50 that approximates it; ≥ and ≤ were set here for values at or beyond the usual limits of such assays; details: source organism: Mammarenavirus juninense
HLA-B*46:01 = assay: as above; details: source organism: Mammarenavirus juninense
HLA-B*18:01 = assay: as above; details: source organism: Mammarenavirus juninense
HLA-A*02:01 [7] = assay: as above
HLA-B*48:01 = assay: as above; details: source organism: Mammarenavirus juninense
HLA-A*29:02 = assay: as above; details: source organism: Mammarenavirus juninense
HLA-A*11:01 [8] = assay: IEDB peptide-MHC binding, purified MHC/competitive/fluorescence; ≥ and ≤ were set here for values at or beyond the usual limits of such assays; details: source organism: Zaire ebolavirus
HLA-A*03:01 [9] = assay: as above; details: source organism: Zaire ebolavirus
HLA-A*01:01 [10] = assay: as above
HLA-B*15:01 [11] = assay: as above; details: source organism: Zaire ebolavirus
HLA-A*02:01 [12] = assay: as above
HLA-A*24:02 = assay: as above; details: source organism: Zaire ebolavirus
HLA-A*30:01 = assay: IEDB peptide-MHC binding, purified MHC/direct/fluorescence; filed as Kd, often an IC50 or EC50 that approximates it; ≥ and ≤ were set here for values at or beyond the usual limits of such assays
HLA-B*35:01 [13] = assay: as above; details: source organism: Escherichia coli O157:H7
HLA-A*24:03 [14] = assay: as above
[15] = source organism: Giardia lamblia ATCC 50803
[16] = source organism: Mammarenavirus juninense
[17] = source organism: Zaire ebolavirus
[18] = source organism: Camelpox virus CMS
[19] = source organism: Escherichia coli O157:H7
[20] = source organism: Brucella abortus 2308
[21] = source organism: Sudan ebolavirus
[22] = source organism: Yellow fever virus

**Q.** AEFPVGSTA was tested. Which Kd (HLA-B*83:01) did it give?
**A.** ≥ 5 µM

**Q.** And the Kd (HLA-B*15:42)?
**A.** ≥ 5 µM

**Q.** What about the Kd (HLA-B*45:06) of the same sequence?
**A.** ≥ 5 µM

**Q.** And the Kd (HLA-B*27:05; [15])?
**A.** ≥ 20 µM

**Q.** What about the Kd (HLA-B*44:02; [15]) of the same sequence?
**A.** ≥ 20 µM

**Q.** And the Kd (HLA-A*11:01 [1]; [15])?
**A.** ≥ 20 µM

**Q.** What about the Kd (HLA-B*08:01; [15]) of the same sequence?
**A.** ≥ 20 µM

**Q.** What about the Kd (HLA-A*31:01; [15]) of the same sequence?
**A.** ≥ 20 µM

**Q.** And the Kd (HLA-A*03:01 [2]; [15])?
**A.** ≥ 20 µM

**Q.** What about the Kd (HLA-A*01:01 [3]; [15]) of the same sequence?
**A.** ≥ 20 µM

**Q.** What about the Kd (HLA-B*15:01 [4]; [15]) of the same sequence?
**A.** ≥ 20 µM

**Q.** And the Kd (HLA-B*58:01; [15])?
**A.** ≥ 20 µM

**Q.** What about the Kd (HLA-B*40:01; [15]) of the same sequence?
**A.** 0.41 µM

**Q.** And the Kd (HLA-A*69:01; [15])?
**A.** ≥ 20 µM

**Q.** And the Kd (HLA-B*07:02; [15])?
**A.** ≥ 20 µM

**Q.** What about the Kd (HLA-A*26:01; [15]) of the same sequence?
**A.** ≥ 20 µM

**Q.** How did the Kd (HLA-C*03:03; source organism: Burkholderia cenocepacia HI2424) turn out when FAKPAGTPM was run?
**A.** ≤ 0.001 µM

**Q.** For FFSPVIASL, which Kd (HLA-A*24:03 [5]) is on record?
**A.** ≤ 0.0001 µM

**Q.** And the Kd (HLA-C*03:03; source organism: Bacillus anthracis str. A2012)?
**A.** ≤ 0.001 µM

**Q.** Which results are given for FPREGVFVF?
**A.** Kd (HLA-B*51:01): 0.0314 µM; Kd (HLA-B*53:01): 0.00536 µM; Kd (HLA-B*54:01): 0.0925 µM; Kd (HLA-B*35:01 [6]): 0.000684 µM; Kd (HLA-C*07:02; source organism: SARS-CoV1): 0.51 µM; Kd (HLA-B*08:01; source organism: SARS-CoV1): 0.116 µM; Kd (HLA-B*15:01 [4]; source organism: SARS-CoV1): 2.14 µM; Kd (HLA-B*07:02; source organism: SARS-CoV1): 0.131 µM

**Q.** Which results are given for FRRVAHSSL?
**A.** Kd (HLA-B*39:01): 0.377 µM; Kd (HLA-B*57:01): ≥ 20 µM; Kd (HLA-B*44:02; [16]): ≥ 20 µM; Kd (HLA-C*07:02; [16]): 0.053 µM; Kd (HLA-B*46:01): ≥ 20 µM; Kd (HLA-A*31:01; [16]): ≥ 20 µM; Kd (HLA-B*18:01): ≥ 20 µM; Kd (HLA-A*03:01 [2]; [16]): ≥ 20 µM; Kd (HLA-A*01:01 [3]; [16]): ≥ 20 µM; Kd (HLA-B*15:01 [4]; [16]): ≥ 20 µM; Kd (HLA-B*58:01; [16]): ≥ 20 µM; Kd (HLA-A*02:01 [7]; [16]): ≥ 20 µM; Kd (HLA-B*48:01): ≥ 20 µM; Kd (HLA-A*29:02): ≥ 20 µM; Kd (HLA-A*69:01; [16]): ≥ 20 µM

**Q.** Which IC50 (HLA-A*11:01 [8]) does the source give for GSYGEYQSY here?
**A.** 1.29 µM

**Q.** What about the IC50 (HLA-A*03:01 [9]) of the same sequence?
**A.** 26.1 µM

**Q.** What about the IC50 (HLA-A*01:01 [10]; [17]) of the same sequence?
**A.** 9.91 µM

**Q.** And the IC50 (HLA-B*15:01 [11])?
**A.** 3.51 µM

**Q.** What about the IC50 (HLA-A*02:01 [12]; [17]) of the same sequence?
**A.** ≥ 154 µM

**Q.** Which IC50 (HLA-A*01:01 [10]; [17]) does the source give for GTNETEYLF here?
**A.** ≥ 373 µM

**Q.** And the IC50 (HLA-A*24:02)?
**A.** 8.71 µM

**Q.** And the IC50 (HLA-A*02:01 [12]; [17])?
**A.** 20.9 µM

**Q.** How did the Kd (HLA-A*11:01 [1]; [18]) turn out when HYRPYHYYH was run?
**A.** ≥ 20 µM

**Q.** What about the Kd (HLA-C*07:02; [18]) of the same sequence?
**A.** 0.013 µM

**Q.** What about the Kd (HLA-A*31:01; [18]) of the same sequence?
**A.** 0.0032 µM

**Q.** And the Kd (HLA-A*03:01 [2]; [18])?
**A.** ≥ 20 µM

**Q.** What about the Kd (HLA-A*30:01; [18]) of the same sequence?
**A.** 0.023 µM

**Q.** How did the Kd (HLA-B*27:05; [19]) turn out when ITAGYNRYY was run?
**A.** ≥ 20 µM

**Q.** And the Kd (HLA-B*44:02; [19])?
**A.** ≥ 20 µM

**Q.** And the Kd (HLA-A*11:01 [1]; [19])?
**A.** 2.56 µM

**Q.** What about the Kd (HLA-B*08:01; [19]) of the same sequence?
**A.** ≥ 20 µM

**Q.** And the Kd (HLA-A*31:01; [19])?
**A.** ≥ 20 µM

**Q.** And the Kd (HLA-A*03:01 [2]; [19])?
**A.** 3.25 µM

**Q.** What about the Kd (HLA-A*01:01 [3]; [19]) of the same sequence?
**A.** 0.535 µM

**Q.** And the Kd (HLA-B*15:01 [4]; [19])?
**A.** 0.108 µM

**Q.** What about the Kd (HLA-A*30:01; [19]) of the same sequence?
**A.** 2.13 µM

**Q.** And the Kd (HLA-B*58:01; [19])?
**A.** 4.05 µM

**Q.** What about the Kd (HLA-A*02:01 [7]; [19]) of the same sequence?
**A.** ≥ 20 µM

**Q.** What about the Kd (HLA-B*35:01 [13]) of the same sequence?
**A.** 0.861 µM

**Q.** And the Kd (HLA-B*40:01; [19])?
**A.** ≥ 20 µM

**Q.** And the Kd (HLA-A*69:01; [19])?
**A.** ≥ 20 µM

**Q.** What about the Kd (HLA-A*24:03 [14]; [19]) of the same sequence?
**A.** ≥ 20 µM

**Q.** And the Kd (HLA-B*07:02; [19])?
**A.** ≥ 20 µM

**Q.** And the Kd (HLA-A*26:01; [19])?
**A.** 0.205 µM

**Q.** What does the source list for KQLEYSWVL?
**A.** Kd (HLA-A*02:01 [7]; [20]): 0.0017 µM; Kd (HLA-A*69:01; [20]): 0.846 µM; Kd (HLA-C*03:03; source organism: Brucella canis ATCC 23365): ≥ 20 µM

**Q.** Which Kd (HLA-B*27:05; [15]) does the source give for TTIEDILPK here?
**A.** ≥ 20 µM

**Q.** And the Kd (HLA-B*44:02; [15])?
**A.** ≥ 20 µM

**Q.** What about the Kd (HLA-A*11:01 [1]; [15]) of the same sequence?
**A.** 0.0092 µM

**Q.** And the Kd (HLA-B*08:01; [15])?
**A.** ≥ 20 µM

**Q.** And the Kd (HLA-A*31:01; [15])?
**A.** 2.09 µM

**Q.** And the Kd (HLA-A*03:01 [2]; [15])?
**A.** 2.84 µM

**Q.** What about the Kd (HLA-A*01:01 [3]; [15]) of the same sequence?
**A.** ≥ 20 µM

**Q.** And the Kd (HLA-B*15:01 [4]; [15])?
**A.** ≥ 20 µM

**Q.** What about the Kd (HLA-A*30:01; [15]) of the same sequence?
**A.** 0.471 µM

**Q.** And the Kd (HLA-B*58:01; [15])?
**A.** ≥ 20 µM

**Q.** And the Kd (HLA-A*02:01 [7]; [15])?
**A.** ≥ 20 µM

**Q.** What about the Kd (HLA-B*40:01; [15]) of the same sequence?
**A.** ≥ 20 µM

**Q.** And the Kd (HLA-A*69:01; [15])?
**A.** ≥ 20 µM

**Q.** And the Kd (HLA-A*24:03 [14]; [15])?
**A.** ≥ 20 µM

**Q.** And the Kd (HLA-B*07:02; [15])?
**A.** ≥ 20 µM

**Q.** What about the Kd (HLA-A*26:01; [15]) of the same sequence?
**A.** 0.478 µM

**Q.** What does the source list for VSYEAGEWA?
**A.** IC50 (HLA-A*01:01 [10]; [21]): 50.3 µM; IC50 (HLA-A*02:01 [12]; [21]): 15 µM

**Q.** For YLIIGILTL, which Kd (HLA-A*69:01; [22]) is on record?
**A.** ≥ 20 µM

**Q.** And the Kd (HLA-C*03:03; [22])?
**A.** 0.018 µM
